Reference: PMC6643034 (2019)

T1: CXCL7 (human)
T1 chain: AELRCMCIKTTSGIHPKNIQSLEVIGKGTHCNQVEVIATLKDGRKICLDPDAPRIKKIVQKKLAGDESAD

B1: CXCL4 (ligand)
chain: EAEEDGDLQCLCVKTTSQVRPRHITSLEVIKAGPHCPTAQLIATLKNGRKICLDLQAPLYKKIIKKLLES
B2: CXCL13 (ligand)
chain: VLEVYYTSLRCRCVQESSVFIPRRFIDRIQILPRGNGCPRKEIIVWKKNKSIVCVDPQAEWIQRMMEVLRKRSSSTLPVPVFKRKIP
B3: CXCL11 (ligand)
chain: FPMFKRGRCLCIGPGVKAVKVADIEKASIMYPSNNCDKIEVIITLKENKGQRCLNPKSKQARLIIKKVERKNF

Tests used:
Assay in all cases: BLI
CXCL1 = CXCL1 (human, UniProt P09341 35-107)
CXCL3 = CXCL3 (human, UniProt P19876 35-107)
[1] = biological target: CXC-motif chemokine ligand 10 (CXCL10) (human, UniProt P02778 22-98)
CXCL6 = CXCL6 (human)
CXCL2 = CXCL2 (human, UniProt P19875 35-107)
CXCL4 = biological target: B1
CXCL11 = biological target: B3
CXCL13 = biological target: B2
CXCL5 = CXCL5 (human)
CXCL8 = CXCL8 (human)
CXCL8 (human), sequence (chain, as listed by the source): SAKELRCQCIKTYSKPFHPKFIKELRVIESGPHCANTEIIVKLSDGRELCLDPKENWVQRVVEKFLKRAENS

P1074_IXORI = P1074_IXORI (Ixodes ricinus, UniProt A0A0K8RDH6 29-96)
CXCL7 = biological target: T1, CXCL7
CXCL12 = CXCL12 (human, UniProt P48061 22-93)

| Binder | Kd (CXCL1) [nM] | Kd (CXCL3) [nM] | Kd [1] [nM] | Kd (CXCL6) [nM] | Kd (CXCL2) [nM] | Kd (CXCL4) [nM] | Kd (CXCL11) [nM] | Kd (CXCL13) [nM] | Kd (CXCL5) [nM] | Kd (CXCL8) [nM] | Kd (P1074_IXORI) [nM] | Kd (CXCL7) [nM] | Kd (CXCL12) [nM] |
| --- | --- | --- | --- | --- | --- | --- | --- | --- | --- | --- | --- | --- | --- |
| P1134 (natural protein, glycosylated (periodic acid–Schiff staining)) NEEVFTVEYCGMNCTQKSDGTWTECSGKNKDCRCYHESDAREGLCLSTEYTDFSQFETPSNSDLEAATPRPRKTLYPVRNPHGPKTRGLGYDKRILRDRVKFLI | 27.3 | – | – | – | – | – | – | – | – | – | – | – | – |
| P942 (natural protein, also: glycosylated) DGGNQLSGPQSSANSNEAVFCDTNCTQGTDEAWSGCRGDCFCVYVGNSTEGRCMMLSGDFDYSTPGAED | 3.09 | 5.04 | 133 | 7.28 | 6.48 | 148 | 12.4 | 39.5 | 21.1 | – | – | – | – |
| Evasin 3 (EVA3) (natural protein, also: glycosylated) DGGLVSTIESRTSGDGADNFDVVSCNKNCTSGQNECPEGCFCGLLGQNKKGHCYKIIGNLSGEPPVVRR | 5.73 | 7.37 | – | 1.03 | 7.49 | – | – | – | 24.9 | 2.57 | – | – | – |
| B1 | – | – | – | – | – | – | – | – | – | – | 157 | – | – |
| P1126 (natural protein, also: glycosylated) DGGKPQILQRTDKSTDSEWDPQTCPETCIPSKNITCSDGCVCVKLGEEEEGTCFNMTGVDWLGSPSDD | 10.5 | 13.3 | 7.9 | 9.12 | 5.11 | 393 | 394 | – | 12.1 | – | – | 6.05 | – |
| P1142 (natural protein, glycosylated (periodic acid–Schiff staining)) DGGKPQILQRTDHSTDSDWDPQMCPETCNPSKNISCSSECLCVTLGGGDETGTCFNMSGVDWLGHAQASDGHNDGGGASAWSHPQFEKLEHHHHHHHH | 4.61 | 5.65 | 7.46 | 6.27 | 2.14 | 381 | 322 | – | 9.81 | – | – | 1.83 | – |
| P1080_IXORI (natural protein) SAGSKGSSAPQSSGDSVVAEFCDTNCTMKKDGKWTECNGDCFCVHVGNETVGRCMRLDGDYDYTSSKTTRRNKKTRNGLCRLDRNRTTVDYPERNTREP | – | 124 | 1260 | 61 | – | 2310 | – | 1110 | 55.1 | – | – | – | – |
| P1104 (natural protein, also: glycosylated) ESKEASASQGPGKSFKVEFCETNCTENNGVWSGCTGDCICVSVGDSKEGRCMDLGDKVIDTPVAQG | 14.4 | 43.7 | – | 34.3 | 82.3 | – | – | 220 | 24.5 | – | – | – | 67.8 |
| P1170_IXORI (natural protein) LGDEDQLFSVEYCGTNCTQQDDGKWTPCSGKNGKCKCYHEDGKRYGLCLYTEYTDFSQYPNPEGSEIENTRPRP | 59.6 | – | – | – | – | – | – | – | – | 12.3 | – | – | – |
| B2 | – | – | – | – | – | – | – | – | – | – | 95.8 | – | – |
| P1100_IXORI (natural protein) GSKGSSASQSSDNSVVAKFCDTNCTINEGGKWTECKGGCFCVHVGNETVGRCMKLDGDYDYPSPKPEE | 49.9 | 55.9 | 380 | 15.2 | – | – | 102 | – | 50.8 | – | – | – | – |
| P1124_IXORI (natural protein) DSKGTSDSQDSTKSIKVDFCETNCTKTDGGWTGCTGDCICVSVGDSIEGRCMDFG | 7.61 | 8.84 | – | – | 13.8 | – | – | 256 | 26.4 | – | – | – | 212 |
| P1172_IXORI (natural protein) FLLKSQLCYCLFGIELIGAGIHALHEDEIFTVDYCGTNCTKQSNGSWTTCPGNCSCYHEDGKTDGFCLSTEYTDFTQFPNLTSEEMDAATPRPE | 5.59 | – | – | – | 26 | – | – | – | 59.3 | 26.7 | – | – | – |
| P1090_IXORI (natural protein) GSKELSGPESSENSIEAAFCDTNCTEGTDGVWSGCSAGCFCVHVGNSTVGRCMTFNGVD | 3.55 | 7.67 | 23.9 | 2.82 | 3.03 | – | 3.85 | 12.5 | 43 | – | – | – | – |
| P675 (natural protein, also: glycosylated) GSNQLSGPQSSANSNDAVFCDTNCTQGTDGAWSGCRGDCFCVHVGNSTEGRCIELIGDFDYSTPGAED | 9.99 | 35.7 | 3120 | – | 24.8 | 422 | 7.73 | 582 | 34.2 | – | – | – | – |
| B3 | – | – | – | – | – | – | – | – | – | – | 12 | – | – |
| P1086_IXORI (natural protein) GSKGQRASQVSETSITAEFCDTSCTQGTDKTWSGCSGDCFCVHVGNDTEGRCMRWDGDYPSAEEEE | – | 15.2 | 18.7 | – | – | – | – | – | – | – | – | – | – |
| P1078_IXORI (natural protein) GSKGSSAQQSSHDSIKAEFCETNCTMKTGGKWTQCHGGCFCVHVGNETVGRCIKLDGDYDYPSSKHEE | 6.35 | 43.8 | – | – | 68.3 | – | 16.7 | 255 | 39.2 | – | – | – | – |
